Experiments:
[1] = molecular target: amyloid β monomers (length not stated) (UniProt P05067); assay: assay not stated
[2] = molecular target: amylospheroid 40 (Homo sapiens (Human)) (UniProt P05067); assay: SPR (BIAcore 3000), amylospheroid coupled to CM5 chip, antibody in solution
[3] = molecular target: amylospheroid 42 (Homo sapiens (Human)) (UniProt P05067); assay: as above

reactivity with amyloid β monomers relative to reactivity with amylospheroid [1] [fold]	Kd [2] [nM]	Kd [3] [nM]	Substance
2	–	–	commercialized N-terminal antibodies 82E1 (IBL) (antibody)
–	1.7	3.2	commercialized anti-amyloid β antibody 4G8
–	2.9	–	commercialized anti-amyloid β antibody 6E10

— US8168188
